Experimental data: article doi:10.1101/2020.09.14.296129 (bioRxiv, 2020)

Target: calmodulin (calcium-loaded, holo-CaM) (UniProt P0DP23)
Experiment: other fluorescence titration + ITC

Binder	fold decrease of affinity for CaM against P454	Kd
ASAHWGQRALQGAQAVAAAQRLVSAAALMTQ [P454 H477S-I479A peptide]	~20 fold	–
ASAHAGQRAAQGAQAVAAAQRLVHAIALMTQ [P454 W458A-L463A peptide]	4 fold	–
ASAHWGQEALQGAQAVAAAQELVHAIALMTQ [P454_(R12E) peptide (P454 with R461 and R474 substituted by glutamate)]	–	22.7 µM
ASAHWGQRALQGAQAVAAAQRAVSAAALMTQ [P454 L475A-H477S-I479A peptide]	~20 fold	–
